Laboratory results: article PMC5161677
Where a chain is given by its changes, count along the chain named.

What was measured:
DnaA = biological target: T1, DnaA (Caulobacter crescentus, UniProt B8GWW5 1-490); test: EMSA
T1 sequence: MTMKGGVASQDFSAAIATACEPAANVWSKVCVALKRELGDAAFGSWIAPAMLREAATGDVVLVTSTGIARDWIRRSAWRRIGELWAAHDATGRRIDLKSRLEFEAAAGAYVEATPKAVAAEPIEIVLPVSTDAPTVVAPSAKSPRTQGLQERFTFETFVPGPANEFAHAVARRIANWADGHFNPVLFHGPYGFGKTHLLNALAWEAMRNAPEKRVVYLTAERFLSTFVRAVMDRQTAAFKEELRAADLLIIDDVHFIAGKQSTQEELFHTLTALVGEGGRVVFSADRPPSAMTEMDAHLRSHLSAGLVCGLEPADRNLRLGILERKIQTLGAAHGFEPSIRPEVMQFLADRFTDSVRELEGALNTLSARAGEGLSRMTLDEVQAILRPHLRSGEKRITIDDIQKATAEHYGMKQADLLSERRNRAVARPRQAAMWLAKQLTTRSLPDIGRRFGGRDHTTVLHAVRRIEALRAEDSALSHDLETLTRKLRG

DnaA R357A = biological target: T2, DnaA R357A (Caulobacter crescentus, UniProt B8GWW5 1-490, R357A); test: EMSA
T2 sequence: T1 sequence with R357A

B1: G1 DnaA box dsDNA (dsDNA)
DNA 1: AACGGATGATCCACAGGAGAG
DNA 2: CTCTCCTGTGGATCATCCGTT
B1: binds (DnaA); binds (DnaA R357A).
